Data: patent publication US20170247441A1 (Hoffmann-La Roche, published 2017)

T1: human ANG2-RBD-Fc-region fusion (human, UniProt O15123 275-496, limits assumed)
T1 construct: not shown: Fc-region
T1 sequence: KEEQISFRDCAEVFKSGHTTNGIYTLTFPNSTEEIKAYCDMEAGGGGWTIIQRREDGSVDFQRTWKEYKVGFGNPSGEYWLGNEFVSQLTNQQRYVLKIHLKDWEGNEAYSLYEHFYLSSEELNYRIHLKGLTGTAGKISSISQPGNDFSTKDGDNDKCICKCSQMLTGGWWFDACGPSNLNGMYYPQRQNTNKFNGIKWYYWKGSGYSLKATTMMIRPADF


Assays:
[1] = target: T1, human ANG2-RBD-Fc-region fusion; assay: SPR, human ANG2-RBD-Fc captured, 1:1 model
[2] = target: T1, human ANG2-RBD-Fc-region fusion; assay: SPR, human ANG2; ANG2/VEGF bispecific CrossMab

Binder | koff [1] [s⁻¹] | kon [1] [M⁻¹ s⁻¹] | t1/2 [1] [s] | Kd [2] [nM] | koff [2] [s⁻¹] | kon [2] [M⁻¹ s⁻¹] | t1/2 [2] [s] | Kd [1] [nM] | t1/2 (S) [1] [s]
0025 (Fab, CrossFab CL-CH1, valency 1; differences VH: T28N, T30V; VL: wt) heavy: not shown light: SYVLTQPPSVSVAPGQTARITCGGNNIGSKSVHWYQQKPGQAPVLVVYDDSDRPSGIPERFSGSNSGNTATLTISRVEAGDEADYYCQVWDSSSDHWVFGGGTKLTVLSSASTKGPSVFPLAPSSKSTSGGTAALGCLVKDYFPEPVTVSWNSGALTSGVHTFPAVLQSSGLYSLSSVVTVPSSSLGTQTYICNVNHKPSNTKVDKKVEPKSC | 0.0702 | 1.87e+06 | 10 | – | – | – | – | – | –
Xang2-0165 (bispecific antibody, human IgG1, kappa, L234A L235A, ANG2/VEGF bispecific CrossMab CL-CH1, valency for ANG2 1; ANG2 VH: S100dP, G100jA, T30A, T28N; VL: D50T; VEGF: wt2) heavy 1: not shown light 1: SYVLTQPPSVSVAPGQTARITCGGNNIGSKSVHWYQQKPGQAPVLVVYDTSDRPSGIPERFSGSNSGNTATLTISRVEAGDEADYYCQVWDSSSDHWVFGGGTKLTVLSSASTKGPSVFPLAPSSKSTSGGTAALGCLVKDYFPEPVTVSWNSGALTSGVHTFPAVLQSSGLYSLSSVVTVPSSSLGTQTYICNVNHKPSNTKVDKKVEPKSC heavy 2: EVQLVESGGGLVQPGGSLRLSCAASGYDFTHYGMNWVRQAPGKGLEWVGWINTYTGEPTYAADFKRRFTFSLDTSKSTAYLQMNSLRAEDTAVYYCAKYPYYYGTSHWYFDVWGQGTLVTVSSASTKGPSVFPLAPSSKSTSGGTAALGCLVKDYFPEPVTVSWNSGALTSGVHTFPAVLQSSGLYSLSSVVTVPSSSLGTQTYICNVNHKPSNTKVDKKVEPKSCDKTHTCPPCPAPEAAGGPSVFLFPPKPKDTLMASRTPEVTCVVVDVSHEDPEVKFNWYVDGVEVHNAKTKPREEQYNSTYRVVSVLTVLAQDWLNGKEYKCKVSNKALGAPIEKTISKAKGQPREPQVYTLPPCRDELTKNQVSLWCLVKGFYPSDIAVEWESNGQPENNYKTTPPVLDSDGSFFLYSKLTVDKSRWQQGNVFSCSVMHEALHNAYTQKSLSLSPGK light 2: not shown | – | – | – | 4 | 0.00112 | 302000 | 619 | – | –
XAng2-0033 (Fab, CrossFab CL-CH1, valency 1; differences VH: T28N, S100dP, G100jA; VL: wt) heavy: not shown light: SYVLTQPPSVSVAPGQTARITCGGNNIGSKSVHWYQQKPGQAPVLVVYDDSDRPSGIPERFSGSNSGNTATLTISRVEAGDEADYYCQVWDSSSDHWVFGGGTKLTVLSSASTKGPSVFPLAPSSKSTSGGTAALGCLVKDYFPEPVTVSWNSGALTSGVHTFPAVLQSSGLYSLSSVVTVPSSSLGTQTYICNVNHKPSNTKVDKKVEPKSC | 0.00225 | 753000 | 308 | – | – | – | – | – | –
0040 (Fab, CrossFab CL-CH1, valency 1; differences VH: S100dP, G100jA, T28N, T30V; VL: wt) heavy: not shown light: SYVLTQPPSVSVAPGQTARITCGGNNIGSKSVHWYQQKPGQAPVLVVYDDSDRPSGIPERFSGSNSGNTATLTISRVEAGDEADYYCQVWDSSSDHWVFGGGTKLTVLSSASTKGPSVFPLAPSSKSTSGGTAALGCLVKDYFPEPVTVSWNSGALTSGVHTFPAVLQSSGLYSLSSVVTVPSSSLGTQTYICNVNHKPSNTKVDKKVEPKSC | 0.00592 | 2.59e+06 | 117 | – | – | – | – | 2.3 | –
0074 (Fab, CrossFab CL-CH1, valency 1; differences VH: S100dP, G100jA, T28N, T30A, D100bS; VL: wt) heavy: not shown light: SYVLTQPPSVSVAPGQTARITCGGNNIGSKSVHWYQQKPGQAPVLVVYDDSDRPSGIPERFSGSNSGNTATLTISRVEAGDEADYYCQVWDSSSDHWVFGGGTKLTVLSSASTKGPSVFPLAPSSKSTSGGTAALGCLVKDYFPEPVTVSWNSGALTSGVHTFPAVLQSSGLYSLSSVVTVPSSSLGTQTYICNVNHKPSNTKVDKKVEPKSC | 0.0366 | 2.27e+06 | 19 | – | – | – | – | – | –
XAng2-0156 (Fab, CrossFab CL-CH1, valency 1; differences VH: S100dP, G100jA, T28N, T30A, D100bS; VL: D50T) heavy: not shown light: QPGLTQPPSVSVAPGQTARITCGGNNIGSKSVHWYQQKPGQAPVLVVYDTSDRPSGIPERFSGSNSGNTATLTISRVEAGDEADYYCQVWDSSSDHYVFGTGTKVTVLSSASTKGPSVFPLAPSSKSTSGGTAALGCLVKDYFPEPVTVSWNSGALTSGVHTFPAVLQSSGLYSLSSVVTVPSSSLGTQTYICNVNHKPSNTKVDKKVEPKSC | 0.0031 | 675000 | – | – | – | – | – | – | 224
0042 (Fab, CrossFab CL-CH1, valency 1; differences VH: S100dP, G100jA, T28N, T30K; VL: wt) heavy: not shown light: SYVLTQPPSVSVAPGQTARITCGGNNIGSKSVHWYQQKPGQAPVLVVYDDSDRPSGIPERFSGSNSGNTATLTISRVEAGDEADYYCQVWDSSSDHWVFGGGTKLTVLSSASTKGPSVFPLAPSSKSTSGGTAALGCLVKDYFPEPVTVSWNSGALTSGVHTFPAVLQSSGLYSLSSVVTVPSSSLGTQTYICNVNHKPSNTKVDKKVEPKSC | 0.0128 | 3.22e+06 | 54 | – | – | – | – | – | –
XAng2-0017 (Fab, CrossFab CL-CH1, valency 1; VL: wt) heavy: not shown light: SYVLTQPPSVSVAPGQTARITCGGNNIGSKSVHWYQQKPGQAPVLVVYDDSDRPSGIPERFSGSNSGNTATLTISRVEAGDEADYYCQVWDSSSDHWVFGGGTKLTVLSSASTKGPSVFPLAPSSKSTSGGTAALGCLVKDYFPEPVTVSWNSGALTSGVHTFPAVLQSSGLYSLSSVVTVPSSSLGTQTYICNVNHKPSNTKVDKKVEPKSC | 0.0357 | 3.03e+06 | 19 | – | – | – | – | – | –
0061 (Fab, CrossFab CL-CH1, valency 1; differences VH: S100dP, G100jA, T28N, T30A, D100bT; VL: D50T) heavy: not shown light: SYVLTQPPSVSVAPGQTARITCGGNNIGSKSVHWYQQKPGQAPVLVVYDTSDRPSGIPERFSGSNSGNTATLTISRVEAGDEADYYCQVWDSSSDHWVFGGGTKLTVLSSASTKGPSVFPLAPSSKSTSGGTAALGCLVKDYFPEPVTVSWNSGALTSGVHTFPAVLQSSGLYSLSSVVTVPSSSLGTQTYICNVNHKPSNTKVDKKVEPKSC | 0.0314 | 1.8e+06 | 22 | – | – | – | – | – | –
XAng2-0026 (Fab, CrossFab CL-CH1, valency 1; differences VH: T28N, T30A; VL: wt) heavy: not shown light: SYVLTQPPSVSVAPGQTARITCGGNNIGSKSVHWYQQKPGQAPVLVVYDDSDRPSGIPERFSGSNSGNTATLTISRVEAGDEADYYCQVWDSSSDHWVFGGGTKLTVLSSASTKGPSVFPLAPSSKSTSGGTAALGCLVKDYFPEPVTVSWNSGALTSGVHTFPAVLQSSGLYSLSSVVTVPSSSLGTQTYICNVNHKPSNTKVDKKVEPKSC | 0.0371 | 2.03e+06 | 19 | – | – | – | – | – | –
XAng2-0155 (Fab, CrossFab CL-CH1, valency 1; differences VH: S100dP, G100jA, T28N, T30A; VL: D50T) heavy: not shown light: QPGLTQPPSVSVAPGQTARITCGGNNIGSKSVHWYQQKPGQAPVLVVYDTSDRPSGIPERFSGSNSGNTATLTISRVEAGDEADYYCQVWDSSSDHYVFGTGTKVTVLSSASTKGPSVFPLAPSSKSTSGGTAALGCLVKDYFPEPVTVSWNSGALTSGVHTFPAVLQSSGLYSLSSVVTVPSSSLGTQTYICNVNHKPSNTKVDKKVEPKSC | 0.0319 | 746000 | – | – | – | – | – | – | 22
0058 (Fab, CrossFab CL-CH1, valency 1; differences VH: S100dP, G100jA, T28N, T30A, D100bT; VL: wt) heavy: not shown light: SYVLTQPPSVSVAPGQTARITCGGNNIGSKSVHWYQQKPGQAPVLVVYDDSDRPSGIPERFSGSNSGNTATLTISRVEAGDEADYYCQVWDSSSDHWVFGGGTKLTVLSSASTKGPSVFPLAPSSKSTSGGTAALGCLVKDYFPEPVTVSWNSGALTSGVHTFPAVLQSSGLYSLSSVVTVPSSSLGTQTYICNVNHKPSNTKVDKKVEPKSC | 0.0383 | 1.8e+06 | 18 | – | – | – | – | – | –
Xang2-0166 (bispecific antibody, human IgG1, kappa, L234A L235A, ANG2/VEGF bispecific CrossMab CL-CH1, valency for ANG2 1; ANG2 VH: S100dP, G100jA, T30A, T28N, D100bS; VL: D50T; VEGF: wt2) heavy 1: not shown light 1: SYVLTQPPSVSVAPGQTARITCGGNNIGSKSVHWYQQKPGQAPVLVVYDTSDRPSGIPERFSGSNSGNTATLTISRVEAGDEADYYCQVWDSSSDHWVFGGGTKLTVLSSASTKGPSVFPLAPSSKSTSGGTAALGCLVKDYFPEPVTVSWNSGALTSGVHTFPAVLQSSGLYSLSSVVTVPSSSLGTQTYICNVNHKPSNTKVDKKVEPKSC heavy 2: EVQLVESGGGLVQPGGSLRLSCAASGYDFTHYGMNWVRQAPGKGLEWVGWINTYTGEPTYAADFKRRFTFSLDTSKSTAYLQMNSLRAEDTAVYYCAKYPYYYGTSHWYFDVWGQGTLVTVSSASTKGPSVFPLAPSSKSTSGGTAALGCLVKDYFPEPVTVSWNSGALTSGVHTFPAVLQSSGLYSLSSVVTVPSSSLGTQTYICNVNHKPSNTKVDKKVEPKSCDKTHTCPPCPAPEAAGGPSVFLFPPKPKDTLMASRTPEVTCVVVDVSHEDPEVKFNWYVDGVEVHNAKTKPREEQYNSTYRVVSVLTVLAQDWLNGKEYKCKVSNKALGAPIEKTISKAKGQPREPQVYTLPPCRDELTKNQVSLWCLVKGFYPSDIAVEWESNGQPENNYKTTPPVLDSDGSFFLYSKLTVDKSRWQQGNVFSCSVMHEALHNAYTQKSLSLSPGK light 2: not shown | – | – | – | 49 | 0.0135 | 275000 | 51 | – | –
0057 (Fab, CrossFab CL-CH1, valency 1; differences VH: S100dP, G100jA, T28N, T30A, D100bE; VL: wt) heavy: not shown light: SYVLTQPPSVSVAPGQTARITCGGNNIGSKSVHWYQQKPGQAPVLVVYDDSDRPSGIPERFSGSNSGNTATLTISRVEAGDEADYYCQVWDSSSDHWVFGGGTKLTVLSSASTKGPSVFPLAPSSKSTSGGTAALGCLVKDYFPEPVTVSWNSGALTSGVHTFPAVLQSSGLYSLSSVVTVPSSSLGTQTYICNVNHKPSNTKVDKKVEPKSC | 0.0948 | 3.28e+06 | 7 | – | – | – | – | – | –
0027 (Fab, CrossFab CL-CH1, valency 1; differences VH: T28N, T30K; VL: wt) heavy: not shown light: SYVLTQPPSVSVAPGQTARITCGGNNIGSKSVHWYQQKPGQAPVLVVYDDSDRPSGIPERFSGSNSGNTATLTISRVEAGDEADYYCQVWDSSSDHWVFGGGTKLTVLSSASTKGPSVFPLAPSSKSTSGGTAALGCLVKDYFPEPVTVSWNSGALTSGVHTFPAVLQSSGLYSLSSVVTVPSSSLGTQTYICNVNHKPSNTKVDKKVEPKSC | 0.165 | 2.4e+06 | 4 | – | – | – | – | – | –
0060 (Fab, CrossFab CL-CH1, valency 1; differences VH: S100dP, G100jA, T28N, T30A, D100bE; VL: D50T) heavy: not shown light: SYVLTQPPSVSVAPGQTARITCGGNNIGSKSVHWYQQKPGQAPVLVVYDTSDRPSGIPERFSGSNSGNTATLTISRVEAGDEADYYCQVWDSSSDHWVFGGGTKLTVLSSASTKGPSVFPLAPSSKSTSGGTAALGCLVKDYFPEPVTVSWNSGALTSGVHTFPAVLQSSGLYSLSSVVTVPSSSLGTQTYICNVNHKPSNTKVDKKVEPKSC | 0.0786 | 3.72e+06 | 9 | – | – | – | – | – | –
0028 (Fab, CrossFab CL-CH1, valency 1; differences VH: T30K; VL: wt) heavy: not shown light: SYVLTQPPSVSVAPGQTARITCGGNNIGSKSVHWYQQKPGQAPVLVVYDDSDRPSGIPERFSGSNSGNTATLTISRVEAGDEADYYCQVWDSSSDHWVFGGGTKLTVLSSASTKGPSVFPLAPSSKSTSGGTAALGCLVKDYFPEPVTVSWNSGALTSGVHTFPAVLQSSGLYSLSSVVTVPSSSLGTQTYICNVNHKPSNTKVDKKVEPKSC | 0.259 | 1.81e+06 | 3 | – | – | – | – | – | –
